Here are results for 83 variants from the RNAGym collection of RNA variant scans (doi:10.1073/pnas.2313332121).

B1: TPR t1 (parent)
chain: GACCAAUCUGCCCUCAGAGCUCGAGAACAUCUUCGGAUGCAGAGGAGGCAGGCUUCGGUGGCGCGAUAGCGCCAACGUCCUCAACCUCCAAUGCAUCCCACCACAUGAUGAUGCCUGAAGAGCCUUGGUUUUUUG

In the data set the parent is B1. The experiment in a line: polymerase ribozyme fitness, log enrichment relative to wild type (log ratio); higher = more active; in vitro selection for triplet polymerase activity. The method in brief: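 One round of in vitro selection, in triplicate, was applied to PCR-built, transcribed mutant libraries of each subunit of a heterodimeric triplet polymerase ribozyme. The steps were annealing with a biotinylated primer, partner subunit and triplets, incubation frozen at −7 °C, gel excision of extended constructs, streptavidin-bead capture and RT-PCR. Fitness is the logarithm, base 2, of genotype enrichment over wild-type enrichment from inverse-variance-weighted replicate averages of Illumina-sequenced inputs and outputs, keeping genotypes with ≥10 input reads and ≥1 read per output.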
As to U14C C20A C114U G128U, the “polymerase ribozyme fitness (log ratio)” value was -5.92.
For C15U A27U the value was -4.81; for C13U U21C C80U A90U, -1.82; for U14A A43G G58A C86U, -4.43.
Regarding C13U U33G G69U C104G G120A U125C, the “polymerase ribozyme fitness (log ratio)” value is -6.78.
As to C13U U14A A27U G47C, the “polymerase ribozyme fitness (log ratio)” value was -6.21.
For the variant C15A U33A G42C U78C C79U A111G, the “polymerase ribozyme fitness (log ratio)” value is -6.15.
For C15G C53G C72A U81A G120C C123G the value was -2.32.
As for U14A G61U U81A C97U, the “polymerase ribozyme fitness (log ratio)” value is -3.36.
On to C13U U14A G71A C82G, for which the “polymerase ribozyme fitness (log ratio)” value is -2.67.
Regarding U14C A18U G48U G71A, the “polymerase ribozyme fitness (log ratio)” value is -6.1.
Regarding C13U C72G C85G C123U, the “polymerase ribozyme fitness (log ratio)” value is -0.494.
For the variant U14G C73U A90G, the “polymerase ribozyme fitness (log ratio)” value is 1.59.
With C13U C76A, the “polymerase ribozyme fitness (log ratio)” value is -0.633.
In the case of C15A C88U C123U, the “polymerase ribozyme fitness (log ratio)” value was -1.37.
As for U14A C56G, the “polymerase ribozyme fitness (log ratio)” value is -3.51.
For C15G A16U C72U U109A C115U the value was -6.16; for C15U C56G A90C G93A G117U G127A, -3.28.
Turning to C13U C82U A83G A118U, the “polymerase ribozyme fitness (log ratio)” value was -1.83.
U14C G45A G122A: the “polymerase ribozyme fitness (log ratio)” value was -3.73.
Regarding U14G C73U, the “polymerase ribozyme fitness (log ratio)” value is -1.04.
For C13U C64U, the “polymerase ribozyme fitness (log ratio)” value was 0.138.
For C13U G63A U78C the value was -0.503; for C15A G63A, -2.56.
In the case of C13U G69U G93A U126C, the “polymerase ribozyme fitness (log ratio)” value was -0.75.
For the variant U14A G57A G61A A90G C124A, the “polymerase ribozyme fitness (log ratio)” value was determined as 1.08.
With C15A G57U C64G, the “polymerase ribozyme fitness (log ratio)” value was -6.59.
For C15G C94A the value was -3.63.
Consider U14A C53G C70U C72G, for which the “polymerase ribozyme fitness (log ratio)” value was -4.88.
Take C13U C56U G60C C73A: the “polymerase ribozyme fitness (log ratio)” value was -0.677.
Regarding C15A A46C G52U C56U C115G, the “polymerase ribozyme fitness (log ratio)” value is -6.86.
Take U14A G60U U78C: the “polymerase ribozyme fitness (log ratio)” value was -3.65.
C13U C34A C70A U106A C114A: the “polymerase ribozyme fitness (log ratio)” value is -6.64.
Regarding C13U G45U G60C C82U, the “polymerase ribozyme fitness (log ratio)” value is -0.444.
On to U14A A74G G117U, for which the “polymerase ribozyme fitness (log ratio)” value is -4.7.
As for C15G A29G C88G, the “polymerase ribozyme fitness (log ratio)” value was -3.43.
For C13U G93A C114G the value was -2.39.
On to U14G C34A G117A, for which the “polymerase ribozyme fitness (log ratio)” value was -4.56.
For C15A A41U, the “polymerase ribozyme fitness (log ratio)” value was -3.45.
For the variant C15A G48C, the “polymerase ribozyme fitness (log ratio)” value was -3.05.
For C15A U109G G113A U131A the value was -5.16; for C15G A37U A66G C123A, -3.27.
For C15U C73U C94A A111C the value was -2.53; for C15U C70U G71A, -1.62.
U14A C85A C89G C123U: the “polymerase ribozyme fitness (log ratio)” value was -3.2.
In the case of C15A G120A, the “polymerase ribozyme fitness (log ratio)” value was 0.181.
Regarding U14G C22U A29G G61A C124G U129C, the “polymerase ribozyme fitness (log ratio)” value is -4.06.
For the variant C15A A18U C22G U92G, the “polymerase ribozyme fitness (log ratio)” value was -6.59.
Take C13U C40A G120A U131G: the “polymerase ribozyme fitness (log ratio)” value was -0.101.
For C13U C102A the value was -2.14; for C15U C79U A111U A121U, -3.53; for C15G C97U, -2.23.
For U14A A46C G69A C101U G110U U126A, the “polymerase ribozyme fitness (log ratio)” value is -6.24.
For C13U C82G the value was 0.0764.
In the case of C15G G63A U116G, the “polymerase ribozyme fitness (log ratio)” value is -3.64.
For C13U U96A the value was -1.11; for C13U C123U U132A, 1.91; for C15A G47U G61U G110A, -3.43.
For U14A A74C C76A A121C, the “polymerase ribozyme fitness (log ratio)” value was -1.88.
For U14C U55C G117U U133G the value was -5.59; for C15U C82G A108G A111G A121C, -6.58; for U14G G36C, -3.92.
Turning to C15U C34G C53U C114U, the “polymerase ribozyme fitness (log ratio)” value is -5.11.
Turning to C13U C49U, the “polymerase ribozyme fitness (log ratio)” value was -0.549.
As for C15A A46C G63A G113C C114U, the “polymerase ribozyme fitness (log ratio)” value is -6.03.
C13U U21A A27G G61C C99U: the “polymerase ribozyme fitness (log ratio)” value is -6.29.
For C15U C56U, the “polymerase ribozyme fitness (log ratio)” value was -1.21.
C15A C72G C104U: the “polymerase ribozyme fitness (log ratio)” value was -1.9.
In the case of C13U G110U, the “polymerase ribozyme fitness (log ratio)” value is -1.02.
As for C15G U112A, the “polymerase ribozyme fitness (log ratio)” value is -1.44.
In the case of C15A C72U G93U C114G, the “polymerase ribozyme fitness (log ratio)” value is -5.25.
For C15G A16U G69C the value was -4.45.
For the variant U14G G120U, the “polymerase ribozyme fitness (log ratio)” value was -1.14.
As for C13U C56G, the “polymerase ribozyme fitness (log ratio)” value worked out at 0.205.
With C15G G52U U87G, the “polymerase ribozyme fitness (log ratio)” value is -3.21.
Consider C13U U32C G93C A95G, for which the “polymerase ribozyme fitness (log ratio)” value was -1.09.
Consider C13U G19C G48U, for which the “polymerase ribozyme fitness (log ratio)” value was -3.4.
In the case of U14C C40G C49G, the “polymerase ribozyme fitness (log ratio)” value was -3.41.
Take C13U G63U A90U G117C: the “polymerase ribozyme fitness (log ratio)” value is -5.21.
In the case of C13U G93C, the “polymerase ribozyme fitness (log ratio)” value is -0.682.
Regarding U14A G48A C56U G117U, the “polymerase ribozyme fitness (log ratio)” value was -5.41.
For C15G G120C, the “polymerase ribozyme fitness (log ratio)” value was -0.975.
C13U C70A A84U: the “polymerase ribozyme fitness (log ratio)” value is -1.83.
